# In US20230226096A1 (Orna Therapeutics, Inc., priority 2020, published 2023):
# Tested on: HEK293 cells
# Type: cell-based, human
# Details: luminescence from secreted Gluc in supernatant 24 hours after transfection of HEK293 cells; circular RNA encoding Gluc with the named IRES (UTR truncated to 675 nt)
row,Molecule,Expression
1,"HAV FH1 (nucleic acid, Hepatovirus A) DNA: CTTGATACCTCACCGCCGTTTGCCTAGGCTATAGGCTAAATTTCCCTTTCCCTGTCCTTTCCCTATTTCCTTTTGTTTTGTTTGTAAATATTAATTCCTGCAGGTTCAGGGTTCTTTAATCTGTTTCTCTATAAGAACACTCAATTTTCACGCTTTCTGTCTCCTTTCTTCCAGGGCTCTCCCCTTGCCCTAGGCTCTGGCCGTTGCGCCCGGCGGGGTCAACTCCATGATTAGCATGGAGCTGTAGGAGTCTAAATTGGGGACGCAGATGTTTGGGACGTCGCCTTGCAGTGTTAACTTGGCTTTCATGAACCTCTTTGATCTTCCACAAGGGGTAGGCTACGGGTGAAACCTCTTAGGCTAATACTTCTATGAAGAGATGCCTTGGATAGGGTAACAGCGGCGGATATTGGTGAGTTGTTAAGACAAAAACCATTCAACGCCGAAGGACTGGCTCTCATCCAGTGGATGCATTGAGGGAATTGATTGTCAGGGCTGTCTCTAGGTTTAATCTCAGACCTCTCTGTGCTTAGGGCAAACACTATTTGGCCTTAAATGGGATCCTGTGAGAGGGGGTCCCTCCATTGACAGCTGGACTGTTCTTTGGGGCCTTATGTGGTGTTTGCCTCTGAGGTACTCAGGGGCATTTAGGTTTTTCCTCATTCTTAAACAATA",1.24E+05
2,"Avisivirus B (nucleic acid, Avisivirus B) DNA: CACCCCCTACTGCCCTAACCCCCAAAGTTAGTTATAGGGTGGCTCCCTACCCTTACTCCACGGGGTAAGCCCTAACCCGGTTGAATCTCAAGATCAGCCTTAGCGAGGACTATTAGTACCGCTCAAACCCTTTGCCTGTAGTGCCCAGGGGTCACAGAGGGGTGACCCTCTCCCTGGGGCCCAAAAGGCTAGGTGGCAAGACAGGGTCCAAGTGAGGGGCTACTCTAAGTAGCCCCAAGCTGAACATCCTGTCTGAAGCCACCCTTGCAGGGCCAGGTTTGATTGGGGAAACTAGACACCAGCTTTGTCCTGGGATTGGGGGGATATCGAGTTAGTCCAGGAGGTGCGAGTAGATGCCCCCGAAGGTACCCCAGGCACATCTGGGATCTGATCGGGGGCCCGTGACTATACAATAGGTAAACCGGGTTAAAAAACATGAAAGCGCCTCTCTCTTTCCTACTTCTTTTATTGACTGGTGACAAAAATAGCAGT",8.68E+04
3,"Limnipivirus C (nucleic acid, Limnipivirus C) DNA: GTTTCTGAGCACTGGTAAGAGCTTAGACAAACGTTTTTAAAATTTATTTTCTCTGCAACTTTTGTTTGTGTTTATTTTTATTTGTTAATTTTGCGCCTAAGCATTTGTTGCGAAGTATTTGATTCATTAGTAATATTACTTATTGTTTATTTAGATGGTATTCAAAGTGGTGGGAGTATCGAACCCAAGCGTCGTATGCTATCTCCTTGAACAATTTTTAATCATTGCGAAGTGATCATTGAAAAGGATAGGTGTTTAAGAACTCAAAGAGTGTTAATAATGTTGGGTGACAGGTGTCCCCATAGAATTTATTAACATGATTTGGACTGGTTATCTAGTAAGAAGAACCATCGAACGCACGAGCGAGCATTGCTTGCGGGGCAGTTACCCTGCGTCGATGTAAGTGTGTACCGGGGGGTGCACATGTTGATTCTTTATGGCCTGATAGGGTGCGTCATTCGCGCCTAGATAATTAGTATAATGCGAATGGAATAAATTTAC",1.35E+05
4,"Limnipivirus A (nucleic acid, Limnipivirus A) DNA: TTCTTTGGATATCCATTTAACGTGTACCCTATACGATAATTGGGGTGGATTCTGGATGCCTAGTTCCAGTGATTGGTTAAGAACTCGTTTACTACGTATAGTATGATTAGCAAAGTGCTCGATTGATCACGTAATGATCTATGTGGTTAAAAACCCAGTAGTATGGTATATACTCAGTAGTGTACACTGTGAGTACAACTCTTGGCGTAGAGAGAACAATTCACCCGAATCCGTGGCGTATCCATGGAAATAAGTTTACCTAATTGTATGTTACAAGGCATATGAGACATTTATGAGATATGGTTTATTTTGACTAAACGAGTGTAGAGGTGGTGGAGTCTATCCAACTTCAAGCCATGCAATTGTTGTGTTGATTGATATCATTGACCATTTTTGTGGATTGTGTACACATACAATTTGAAAATTAACCCCCTCAAGAATAAGACATGGGACCATTCGTGGTAGATACCGTGCTCGGATGCTTGAGATTAGATGGGTTAGACTAGTTTTGGAATGAGATTGCCGAGAAAGTCCCGCTAGACATGTTTTACAAGTCGTGGTATTCCGCTAGACTTTTTCGCAGACACATGGAAGGGTCCATGTGTTGTGCAATTGCAGGGTGACAGCCCAACTGCAGAGTTTTCCTTACTAGAATAAAAATCTGTTGTCAATTTT",8.30E+04
5,"Orivirus (nucleic acid, listed as Orivirus sp.) DNA: GGTCCCAGGCCAATATTCTTCGTAAGGCTTGGTTCCAATTTTCCACCACTCGTGTTTGGGTTCTGGCCTATGGTACCCAGAGGGGCGGTTTGGGGGAATTAACTCCCCCTCCCCTGTGGTCCTATACCACCCCACACCTCTGTGGGCTTTCTTTACTATCTTCTTGTTTTCCGACTTTTAAACACTAGGCAGGCGCGCCTAGTCATACACCGCCCGGCTGGTCTTTCCAGCTCTTGTGGGCGGTGCGCGCTGGTCCATCGTGCCCAGCGACATAGCACCTTGTGGACACCTCCGAACGCCCTCCCCTGTATGGGGTGGTGCCCAGGGGTTTCAGTGTGGTGACACACTCCCTGGGGCCCGAAAGGCTAGTGTGCAACAGGTGAGGTACAGCCAGCTGCCCCCGTGGCTGGAGGGACCAAGCTTGTGAAGCACACCTCACCTTCTTGGGGGTGGGCTAGTAAGTGGTGAAAGCATAGTGTCCGTGTCGCTGGCCAACACTTTGGGTCAAGTCCAGCCACTCAGTGAGTAGATGCCCAGGAGGTACCCCTAGTGGATCTGACTTGGGGCCTGTTACTTAATGCAGGTTAAAAACTATGAAAGCTGAGTAGTGTAGCCCGGCTGGTGGCTTCTCTTCCTTATTCATTCTATTTTATGGTGACAAACGCAACTGAAGCC",6.09E+05
6,"Crohivirus A (nucleic acid, Crohivirus A) DNA: GTTGAAGTCCATTTCTTGCTTGCCCCCGATGAATCCTGTTAAGGCCTCACGGCCCTAAGGGTGAAACTCGGTTATCCCCTCCTGTACTTCGAGAAGATTAGTACAACACTATGAAATCTACATCTTGTGATCCGGGATAACCCCAATCCCAGAAACCTGTGATGGGCGTCACCACCCCTCTTATGGTAACATAAGGGTGTCGCCGCGTTGGCACAGGACCCTTTGGGCTGGATGTTTTTAGTAATGGTGTCGAAGGTCCTATTGAGCTACAGGAGTTTCCTCCGCCCTGGTGAATGCGGCTAATCTTATCCCTGAGCCTAAGGTTGCGATCCAGCAACTTGATGGTCGTAATGCGTAAGTTGGGGGCGGAACCGACTACTTTCCAGAAGGCGTGTTTCTTTGTTTTGTCTGTTACTATGGTGCATGATATAGATATTGAATATTTGATCTTTTTGAGCTGTTTCTTATCTTATTGCTACATCCTTTCAGGTGTTGGATTTACATTTTGGTTAATAAG",9.96E+04
7,"Kunsagivirus B (nucleic acid, Kunsagivirus B) DNA: GATTTTCTGGTTATCCCTTTTGGACTTGGTAGGGGCCCACGTGCCCACCCACCTCTGTGTGTGTTGATTTCTAATCGATGCCTGGCAGTGGCGGCCACCTCTCCTTACTGGTAAACCTCCGGTGAGTGAAGTTGTCAAGCTACAGGTACCGTGCAGGATGAAATGCGCACATGTGAACAAACTAGGAGTCATACACCGGGTCAAACTCTGGAAACGGAGTCCGGGACTCTGACCTTGGTTGGGTGAGCTCGAGGCATCACATTGATGGACGCGATTCGCTATCCTTCCCTAGTAGGACCTTGTGGTGTACCCCTGGTTGGGAATCCAGGGCTGGTCGGGTGCAGGGTGACAGCCTGTTCTCCACCTCAACCATTGTAGGAGAAATCAACCCCT",8.01E+04
